Experimental data taken from US20190071517A1 (KANAGAWA PREFECTURAL HOSPITAL ORGANIZATION, published 2019).

Assays:
[1] = target: T1, HEG1 full length (full length human HEG1 protein expressed in ACC-MESO-1) (human, UniProt Q9ULI3 30-1381, limits assumed); experiment: Western blot of ACC-MESO-1 cell lysate
T1 construct: Full length; expressed from pFLAG-CMV1 in ACC-MESO-1 with the endogenous HEG1 knocked down; cell lysate in Western blot; What the vector adds is not described; also called full length protein
T1 sequence: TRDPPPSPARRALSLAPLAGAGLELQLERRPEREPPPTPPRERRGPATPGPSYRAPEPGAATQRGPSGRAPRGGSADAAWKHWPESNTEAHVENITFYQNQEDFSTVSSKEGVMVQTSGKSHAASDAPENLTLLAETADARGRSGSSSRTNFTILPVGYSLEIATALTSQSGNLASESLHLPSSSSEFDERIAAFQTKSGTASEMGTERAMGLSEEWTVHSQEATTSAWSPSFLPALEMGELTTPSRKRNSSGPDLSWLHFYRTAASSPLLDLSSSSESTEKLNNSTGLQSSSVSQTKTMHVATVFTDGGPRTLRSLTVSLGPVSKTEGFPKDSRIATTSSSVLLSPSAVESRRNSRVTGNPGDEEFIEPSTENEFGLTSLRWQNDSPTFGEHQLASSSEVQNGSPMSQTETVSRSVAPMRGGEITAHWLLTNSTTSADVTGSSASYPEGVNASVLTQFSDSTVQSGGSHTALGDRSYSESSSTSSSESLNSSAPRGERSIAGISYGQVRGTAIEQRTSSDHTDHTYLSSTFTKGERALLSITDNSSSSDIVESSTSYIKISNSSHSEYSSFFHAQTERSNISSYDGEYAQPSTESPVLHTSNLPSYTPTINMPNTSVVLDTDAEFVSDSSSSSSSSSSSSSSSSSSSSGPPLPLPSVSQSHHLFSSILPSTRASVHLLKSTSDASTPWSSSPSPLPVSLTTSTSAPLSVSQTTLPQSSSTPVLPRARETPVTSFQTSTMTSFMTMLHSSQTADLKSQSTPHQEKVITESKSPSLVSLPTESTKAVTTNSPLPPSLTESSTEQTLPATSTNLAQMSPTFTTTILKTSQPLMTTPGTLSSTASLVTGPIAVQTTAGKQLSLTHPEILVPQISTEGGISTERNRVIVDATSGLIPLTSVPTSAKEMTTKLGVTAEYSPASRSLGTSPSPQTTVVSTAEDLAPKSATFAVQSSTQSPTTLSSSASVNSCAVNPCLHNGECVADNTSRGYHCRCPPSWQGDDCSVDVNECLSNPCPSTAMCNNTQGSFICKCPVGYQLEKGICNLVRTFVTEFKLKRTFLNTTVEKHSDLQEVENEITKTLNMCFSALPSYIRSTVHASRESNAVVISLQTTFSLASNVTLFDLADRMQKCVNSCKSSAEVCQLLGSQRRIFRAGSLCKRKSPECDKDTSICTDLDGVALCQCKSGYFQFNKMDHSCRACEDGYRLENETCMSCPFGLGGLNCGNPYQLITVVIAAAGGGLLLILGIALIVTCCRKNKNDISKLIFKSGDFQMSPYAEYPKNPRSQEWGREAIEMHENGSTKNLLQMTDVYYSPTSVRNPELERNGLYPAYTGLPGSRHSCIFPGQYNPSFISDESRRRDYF
Procedure: (§1) Gene transfer was performed with HEG1 siRNA (H9106) (SEQ ID NOs: 40, 41) and human HEG1 for the mesothelioma cell line ACC-MESO-1, and the reactivity of the SKM9-2 was examined through Western blot analysis. A full length protein (HEG1 full length) or a fragment (HEG1 3kb, HEG1 2kb, or HEG1 1kb) of the human HEG1 was used. The full length human HEG1 protein, a protein having the amino acid sequence set forth in SEQ ID NO: 35, was obtained through inserting a base sequence set forth in SEQ ID NO: 34 into pFLAG-CMV1 (Sigma-Aldrich Japan K.K.) to obtain a plasmid, transforming the plasmid, and allowing the mesothelioma cell line to express the plasmid. Fragment HEG1 3kb was obtained through inserting a fragment corresponding to a sequence from position 285, leucine, to position 1387, phenylalanine, of SEQ ID NO: 35 into pFLAG-CMV1 (Sigma-Aldrich Japan K.K.) in an in-frame manner, and allowing the mesothelioma cell line to express the resultant. HEG1 2kb and HEG1 1kb were obtained through allowing the mesothelioma cell line to express products similarly obtained from a fragment corresponding to a sequence from position 677, leucine, to position 1387, phenylalanine, of SEQ ID NO: 35 and a fragment corresponding to a sequence from position 992, valine, to position 1387, phenylalanine, of SEQ ID NO: 35, respectively. Each cell lysate was analyzed through Western blot with the SKM9-2 antibody.

HEG1 2kb = target: T2, HEG1 2kb (human, UniProt Q9ULI3 671-1381); experiment: Western blot of ACC-MESO-1 cell lysate
T2 construct: Inserted into pFLAG-CMV1, expressed in ACC-MESO-1; also called fragment 2kb
T2 sequence: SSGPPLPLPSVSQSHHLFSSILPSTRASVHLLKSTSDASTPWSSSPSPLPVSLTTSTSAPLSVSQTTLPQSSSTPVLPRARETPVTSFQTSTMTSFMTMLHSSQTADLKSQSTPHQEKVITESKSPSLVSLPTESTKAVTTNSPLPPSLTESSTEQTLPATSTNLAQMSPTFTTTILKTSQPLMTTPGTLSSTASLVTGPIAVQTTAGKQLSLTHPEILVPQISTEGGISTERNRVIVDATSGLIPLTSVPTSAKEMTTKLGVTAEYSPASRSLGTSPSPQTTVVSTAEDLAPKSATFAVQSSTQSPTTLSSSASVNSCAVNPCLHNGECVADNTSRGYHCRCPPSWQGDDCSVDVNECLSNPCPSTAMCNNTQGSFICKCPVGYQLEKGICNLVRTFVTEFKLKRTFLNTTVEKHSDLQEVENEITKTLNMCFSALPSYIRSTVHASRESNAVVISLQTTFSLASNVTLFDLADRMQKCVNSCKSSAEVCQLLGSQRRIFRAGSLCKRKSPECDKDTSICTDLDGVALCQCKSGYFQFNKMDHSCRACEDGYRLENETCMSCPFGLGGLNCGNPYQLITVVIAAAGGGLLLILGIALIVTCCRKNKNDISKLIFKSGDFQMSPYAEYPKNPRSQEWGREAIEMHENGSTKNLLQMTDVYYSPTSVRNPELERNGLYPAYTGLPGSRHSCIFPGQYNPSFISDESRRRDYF
Procedure: as §1

HEG1 3kb = target: T3, HEG1 3kb (human, UniProt Q9ULI3 285-1381); experiment: Western blot of ACC-MESO-1 cell lysate
T3 construct: Inserted in frame into pFLAG-CMV1, expressed in ACC-MESO-1; what the vector adds is not described; also called fragment 3kb
T3 sequence: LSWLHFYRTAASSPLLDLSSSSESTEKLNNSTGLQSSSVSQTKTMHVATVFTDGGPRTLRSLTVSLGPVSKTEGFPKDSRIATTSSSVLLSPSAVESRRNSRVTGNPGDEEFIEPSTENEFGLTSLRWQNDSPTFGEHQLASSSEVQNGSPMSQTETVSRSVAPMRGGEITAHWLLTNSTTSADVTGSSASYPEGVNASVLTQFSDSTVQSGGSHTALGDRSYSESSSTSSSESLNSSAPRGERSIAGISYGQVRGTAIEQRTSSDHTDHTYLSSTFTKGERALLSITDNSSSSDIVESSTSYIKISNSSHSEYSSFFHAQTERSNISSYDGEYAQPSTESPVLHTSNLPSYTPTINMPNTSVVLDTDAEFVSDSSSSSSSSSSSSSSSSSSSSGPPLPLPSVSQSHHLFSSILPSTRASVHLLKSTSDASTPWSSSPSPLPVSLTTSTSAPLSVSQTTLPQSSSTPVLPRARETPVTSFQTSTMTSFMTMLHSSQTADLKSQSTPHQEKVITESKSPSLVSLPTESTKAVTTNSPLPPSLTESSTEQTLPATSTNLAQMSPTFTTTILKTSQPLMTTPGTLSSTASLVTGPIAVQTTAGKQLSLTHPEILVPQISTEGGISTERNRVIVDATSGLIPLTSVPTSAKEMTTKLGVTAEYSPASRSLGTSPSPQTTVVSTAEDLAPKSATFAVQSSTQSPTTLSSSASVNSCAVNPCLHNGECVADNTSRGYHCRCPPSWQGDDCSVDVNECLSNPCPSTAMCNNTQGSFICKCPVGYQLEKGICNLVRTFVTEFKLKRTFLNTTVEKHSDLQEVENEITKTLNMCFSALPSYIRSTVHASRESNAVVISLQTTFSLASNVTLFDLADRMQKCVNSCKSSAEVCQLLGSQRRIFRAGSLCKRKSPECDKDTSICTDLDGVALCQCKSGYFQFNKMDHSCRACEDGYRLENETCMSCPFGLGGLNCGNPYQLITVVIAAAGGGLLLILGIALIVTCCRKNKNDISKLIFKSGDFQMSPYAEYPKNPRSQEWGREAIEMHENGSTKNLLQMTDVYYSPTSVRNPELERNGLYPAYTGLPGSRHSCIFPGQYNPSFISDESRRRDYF
Procedure: as §1

HEG1 1kb = target: T4, HEG1 1kb (human, UniProt Q9ULI3 986-1381); experiment: Western blot of cell lysate
T4 construct: Inserted into pFLAG-CMV1, expressed in ACC-MESO-1; also called fragment 1kb
T4 sequence: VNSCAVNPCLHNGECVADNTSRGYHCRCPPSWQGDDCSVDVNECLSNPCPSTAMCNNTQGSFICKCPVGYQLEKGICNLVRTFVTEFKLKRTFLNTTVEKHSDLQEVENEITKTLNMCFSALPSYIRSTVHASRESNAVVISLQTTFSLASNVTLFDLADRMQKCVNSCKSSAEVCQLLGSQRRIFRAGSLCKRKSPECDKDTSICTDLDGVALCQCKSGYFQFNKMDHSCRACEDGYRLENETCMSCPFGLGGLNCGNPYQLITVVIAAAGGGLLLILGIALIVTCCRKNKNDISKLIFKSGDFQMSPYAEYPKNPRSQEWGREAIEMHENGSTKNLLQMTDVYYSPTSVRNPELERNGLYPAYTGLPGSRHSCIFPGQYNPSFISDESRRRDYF
Procedure: as §1, with “HEG1 2kb and HEG1 1kb were obtained through allowing the mesothelioma cell line to express products similarly obtained from a fragment corresponding to a sequence from position 677, leucine, to position 1387, phenylalanine, of SEQ ID NO: 35 and a fragment corresponding to a sequence from position 992, valine, to position 1387, phenylalanine, of SEQ ID NO: 35, respectively.” left out

binding result [1]: binds
binding result (HEG1 2kb): binds
binding result (HEG1 3kb): binds
binding result (HEG1 1kb): no binding
B1: SKM9-2 antibody (antibody, mouse IgG1, kappa, V domains shown)
VH: QVQLQQPGAELVRPGASVKLSCKASGFSFTTYWITWVKQRPGQGLEWIGMIHPSDSETRLSQTFKDKATLTVDKSSNTAYMQFSSPTSEDSAVYYCVRDFDVWGAGTTVTVSS
VL: DVLMTQTPLSLPVSLGDQASISCRSSQNIVHNNGNTYLGWYLQKPGQSPKLLIFKVSNRFSGVPDRFSGSGSGTDFTLKISRVEAEDLGVYYCFQGSHIPRTFGGGTRLEIKR
notes: also called monoclonal antibody produced from the SKM9-2 hybridoma
